Measurements reported in patent publication US20110312883A1 (NTF THERAPEUTICS, published 2011).

Key:
[1] = target: T1, recombinant human GFRα2-Fc chimera (R&D Systems) (human, UniProt O00451 22-441); test: capture on GFRα2-Fc held on Protein G spin column (after heparin column enrichment), 1.0 M NaCl wash, elution with 2.0 M MgCl2; eluate on non-reducing 15% SDS-PAGE, Coomassie stain
T1 construct: Bought reagent; also called GFRalpha2-Fc fusion protein; soluble recombinant GFRα2-Fc chimera; not shown: Fc portion of human IgG1
T1 sequence (looked up): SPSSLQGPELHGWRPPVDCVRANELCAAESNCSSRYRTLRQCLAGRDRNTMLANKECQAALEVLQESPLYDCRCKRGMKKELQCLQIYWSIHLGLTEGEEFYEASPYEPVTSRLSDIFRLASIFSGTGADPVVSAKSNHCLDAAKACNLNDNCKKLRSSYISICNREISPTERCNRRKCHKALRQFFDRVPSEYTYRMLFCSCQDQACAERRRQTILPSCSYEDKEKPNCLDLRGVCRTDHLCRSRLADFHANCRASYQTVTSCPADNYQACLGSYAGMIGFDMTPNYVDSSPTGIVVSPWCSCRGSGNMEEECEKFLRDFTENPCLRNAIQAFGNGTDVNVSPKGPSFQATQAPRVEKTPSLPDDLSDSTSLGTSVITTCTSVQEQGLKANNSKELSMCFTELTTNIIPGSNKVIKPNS
Experimental: Media from NRTN-expressing CHO cells (QMCF Technology at Icosagen Ltd) was thawed at room temperature. HITRAP™ Heparin HP columns (1 ml, GE Healthcare) were equilibrated with 10 ml of 10 mM Hepes, pH 7.2 and 1-10 ml of undiluted media was applied with a syringe according to the manufacturer's instructions. The media was collected and run through the column a second time. The columns were washed with 10 ml of 0.2 M NaCl in 10 mM Hepes, pH 7.2. The NRTN enriched samples were eluted with 5×600 μl of 10 mM Hepes pH 7.2, 1.2 M NaCl. Fractions number two and three were collected and concentrated to a final volume of 50-65 μl, according to the manufacturer's instruction in AmiconUltra 0.5 ml 10K concentrators (Millipore). The samples were then diluted 1:10 with 10 mM Hepes pH 7.2 to a final concentration of NaCl around 120 mM. Soluble recombinant GFRα2-Fc chimera (10-200 μg, R&D Systems) was attached to Protein G HP SpinTrap columns (GE Healthcare) in PBS according to the manufacturer's instructions. The 1:10 diluted samples were added to the GFRα2 columns and incubated for at least one hour at +4° C. with mixing. The columns were first washed with 4×400 μl of cold 10 mM Hepes pH 7.2, 1.0 M NaCl and thereafter with 4×400 μl of cold 10 mM Hepes pH 7.2, 0.1 M NaCl. The NRTN samples were eluted with 5×200 μl of pre-warmed (25° C.) 10 mM Hepes pH 7.2, 2.0 M MgCl₂. The eluted fractions were immediately diluted (1:2) with 10 mM Hepes pH 7.2, 0.150 M NaCl and concentrated with AMICONULTRA™ 0.5 ml 10K concentrators. The samples were further diluted in the same buffer (1:2) and subsequently concentrated three times to yield a final concentration of around 125 mM MgCl₂, and 150 mM NaCl in 10 mM Hepes pH 7.2. Samples of the purified proteins as well as a commercially available batch of neurturin were analyzed using […], under non reducing conditions, and visualized via Coomassie staining.

[2] = target: T1, recombinant human GFRα2-Fc chimera (R&D …); test: precipitation from CHO medium with GFRα2-Fc and Protein G-Sepharose, western blot
Experimental: An aliquot of each media (400 μl) was incubated with recombinant human GFRα2-Fc chimera (0.4 μg, R&D Systems), antibodies to the V5-epitope (0.4 μg, Invitrogen) or antibodies to NRTN (0.4 μg, R&D Systems) for 1 h at +4° C. with mixing. Protein G has a strong affinity for antibodies from mouse and goat as well as for the Fc portion of human IgG₁ in the recombinant GFRα2-Fc chimera. Therefore Protein G-Sepharose was added to the samples and the incubation was continued for 1 h at +4° C. with mixing. After pelleting, the samples were eluted from the protein G-Sepharose with reducing Laemmli buffer and loaded on SDS-PAGE. For Western blot analysis of the V5-tagged variants of NRTN, an anti-V5 antibody (Invitrogen) was used with samples loaded on SDS-PAGE under reducing conditions. For Western blot analysis of the untagged variants of NRTN, an anti-NRTN antibody (R&D Systems) was used with samples loaded on SDS-page under non-reducing conditions.

B1: NRTN WT (ligand)
mature neurturin monomer of the disulfide-linked homodimer: ARLGARPCGLRELEVRVSELGLGYASDETVLFRYCAGACEAAARVYDLGLRRLRQRRRLRRERVRAQPCCRPTAYEDEVSFLDAHSRYHTVHELSARECACV
notes: also called purified untagged mature wild type neurturin made by the same method as the variants
binding result [1]: binds

B2: neurturin variant N3 (untagged, purified) (ligand)
chain: ARLGARPCGLRELEVRVSELGLGYASDETVLFRYCAGACEAAARVYDLGLRALAQARALRAERVRAQPCCRPTAYEDEVSFLDAHSRYHTVHELSARECACV
notes: Dimeric protein; also called NRTN N3; neurturin mutant N3
binding result [1]: binds

B3: neurturin variant N4 (untagged, purified) (ligand)
chain: ARLGARPCGLRELEVRVSELGLGYASDETVLFRYCAGACEAAARVYDLGLARLQGQGALVGSRVRAQPCCRPTAYEDEVSFLDAHSRYHTVHELSARECACV
notes: Dimeric protein; also called NRTN N4; neurturin mutant N4
binding result [1]: binds

B4: neurturin variant N2 (untagged, purified) (ligand)
chain: ARLGARPCGLRELEVRVSELGLGYASDETVLFRYCAGACEAAARVYDLGLRRLAQRRRLRAEAVRAQPCCRPTAYEDEVSFLDAHSRYHTVHELSARECACV
notes: Dimeric protein; also called NRTN N2; neurturin mutant N2
binding result [1]: binds

B5: neurturin variant N1 (untagged, purified) (ligand)
chain: ARLGARPCGLRELEVRVSELGLGYASDETVLFRYCAGACEAAARVYDLGLRALRQARALRRERVRAQPCCRPTAYEDEVSFLDAHSRYHTVHELSARECACV
notes: Dimeric protein; also called NRTN N1; neurturin mutant N1
binding result [1]: binds

B6: V5-tagged wild-type neurturin (ligand)
chain: ARGKPIPNPLLGLDSTSGARLGARPCGLRELEVRVSELGLGYASDETVLFRYCAGACEAAARVYDLGLRRLRQRRRLRRERVRAQPCCRPTAYEDEVSFLDAHSRYHTVHELSARECACV
notes: Secreted from transiently transfected CHO cells and used as crude conditioned medium; also called NRTN WT; E779
binding result [2]: binds

B7: V5-tagged neurturin variant NV2 (ligand)
chain: ARGKPIPNPLLGLDSTSGARLGARPCGLRELEVRVSELGLGYASDETVLFRYCAGACEAAARVYDLGLRRLAQRRRLRAEAVRAQPCCRPTAYEDEVSFLDAHSRYHTVHELSARECACV
notes: Crude conditioned medium of transfected CHO cells; also called NRTN NV2; NV2 (from N2)
binding result [2]: binds

B8: V5-tagged neurturin variant NV3 (ligand)
chain: ARGKPIPNPLLGLDSTSGARLGARPCGLRELEVRVSELGLGYASDETVLFRYCAGACEAAARVYDLGLRALAQARALRAERVRAQPCCRPTAYEDEVSFLDAHSRYHTVHELSARECACV
notes: Crude conditioned medium of transfected CHO cells; also called NRTN NV3; NV3 (from N3)
binding result [2]: binds

B9: V5-tagged neurturin variant NV4 (ligand)
chain: ARGKPIPNPLLGLDSTSGARLGARPCGLRELEVRVSELGLGYASDETVLFRYCAGACEAAARVYDLGLARLQGQGALVGSRVRAQPCCRPTAYEDEVSFLDAHSRYHTVHELSARECACV
notes: Crude conditioned medium of transfected CHO cells; also called NRTN NV4; NV4 (from N4)
binding result [2]: binds

B10: V5-tagged neurturin variant NV1 (ligand)
chain: ARGKPIPNPLLGLDSTSGARLGARPCGLRELEVRVSELGLGYASDETVLFRYCAGACEAAARVYDLGLRALRQARALRRERVRAQPCCRPTAYEDEVSFLDAHSRYHTVHELSARECACV
notes: Crude conditioned medium of transfected CHO cells; also called NRTN NV1; NV1 (from N1)
binding result [2]: binds
